Results as given in patent US12534501B2, “Targeting deregulated Wnt signaling in cancer using stabilized alpha-helices of BCL-9” (Dana-Farber Cancer Institute, Inc., priority 2011, dated 2026).

Legend:
[1] = system: Colo320 cells; assay: Cellular uptake of FITC-labelled peptides; assay type: cell-based; settings: FITC derivatives
Protocol: (§1) For fluorescence microscopy evaluation, cells were prepared using a cytocentrifuge (Thermo Shandon) and fixed as previously described (Sukhdeo, K. et al. Proc Natl Acad Sci USA 104, 7516-21 (2007); Mani, M. et al. Cancer Res 69, 7577-86 (2009)). Anti-β-catenin and rhodamine-conjugated secondary antibodies (5 μg/ml; Southern Biotechnology) were employed. Images were obtained using a BioRad Radiance 2000 laser scanning confocal microscope. Cell permeability of SAH-BCL9B and SAH-BCL9B(R359E) were determined by fluorescence microscopy of cells treated with FITC-derivatives of the above described stapled peptides and also by blotting/fluorescence scan, performed as previously described (Pitter, K. et al Methods Enzymol, 446, (2008), 387-408; Walensky, L. D. et al. Science 305, 1466-70 (2004). See results in FIG. 1E, FIG. 7.

[2] = system: MM1S cells; assay: Cellular uptake of FITC-labelled peptides; assay type: cell-based; settings: FITC derivatives
Protocol: as §1

[3] = target: T1, β-catenin (Homo sapiens, UniProt P35222); assay: Anti-FITC / anti-β-catenin co-immunoprecipitation from lysates of peptide-treated cells; assay type: cell-based; settings: FITC and β-catenin immunoprecipitation, in situ
T1 construct: endogenous in cells; host or cells: Colo320
T1 sequence (P35222 1-781): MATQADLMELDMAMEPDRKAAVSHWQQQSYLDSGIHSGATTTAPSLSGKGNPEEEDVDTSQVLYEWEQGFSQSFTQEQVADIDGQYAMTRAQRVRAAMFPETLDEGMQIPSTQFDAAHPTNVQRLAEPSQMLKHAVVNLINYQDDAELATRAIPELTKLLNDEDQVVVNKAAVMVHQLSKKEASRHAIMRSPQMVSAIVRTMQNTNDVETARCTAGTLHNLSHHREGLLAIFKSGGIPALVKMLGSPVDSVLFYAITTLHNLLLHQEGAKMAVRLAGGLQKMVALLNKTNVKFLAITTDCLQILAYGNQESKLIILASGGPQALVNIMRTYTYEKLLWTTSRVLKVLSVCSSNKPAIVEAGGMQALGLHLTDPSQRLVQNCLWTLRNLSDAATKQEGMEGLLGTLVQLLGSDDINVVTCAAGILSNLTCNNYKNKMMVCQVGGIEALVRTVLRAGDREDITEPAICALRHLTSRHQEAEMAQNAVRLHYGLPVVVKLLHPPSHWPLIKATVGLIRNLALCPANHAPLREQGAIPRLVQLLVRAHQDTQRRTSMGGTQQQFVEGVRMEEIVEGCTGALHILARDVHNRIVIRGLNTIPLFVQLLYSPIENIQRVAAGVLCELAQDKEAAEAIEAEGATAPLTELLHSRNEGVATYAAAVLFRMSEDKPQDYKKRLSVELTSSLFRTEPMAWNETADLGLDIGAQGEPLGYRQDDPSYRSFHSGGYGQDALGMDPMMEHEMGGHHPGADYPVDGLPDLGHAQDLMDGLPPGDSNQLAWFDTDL
Text: (§2) Western blotting, performed as described (Sukhdeo, K. et al. Proc Natl Acad Sci USA 104, 7516-21 (2007)), employed the following primary antibodies: BCL9 (6109) (Mani, M. et al. Cancer Res 69, 7577-86 (2009)), BCL9 (ab37305, Abcam), B9L (AF4967, R&D Systems), β-catenin (CAT5-H10, Zymed), FITC (ab19224, Abcam), Actin-HRP (C-11, Santa Cruz), Caspase3 (#9662, Cell Signaling), IκBα (#9242, Cell signaling), PARP (#9542, Cell Signaling), E-cadherin (#3195, Cell Signaling), and Lamin B (sc-6217, Santa Cruz). Horseradish peroxidase conjugated secondary antibodies were purchased from Santa Cruz and SouthernBiotech. Co-immunoprecipitation was performed as described (Walensky, L. D. et al. Science 305, 1466-70 (2004)). Briefly, cells were lysed in 50 mM Tris, 150 mM NaCl, and 1% CHAPS buffer containing protease and phosphatase inhibitors. Lysates were precleared with Protein A/G PLUS-agarose beads (Santa Cruz Biotechnologies) for 3 hours followed by overnight incubation at 4° C. with the respective antibodies. Agarose A/G beads were then added for 4 h, pelleted, and washed as described (Walensky, L. D. et al. Science 305, 1466-70 (2004)). See results in FIG. 1D, FIG. 1H, FIG. 2A, FIG. 8.

[4] = target: T2, β-catenin/E-cadherin interaction (Homo sapiens, UniProt P35222); assay: Anti-β-catenin co-immunoprecipitation of E-cadherin from MCF7 cell lysates; assay type: cell-based; settings: selectivity
T2 construct: anti-β-catenin co-immunoprecipitation of E-cadherin from MCF7 cell lysates; endogenous in cells; host or cells: MCF7
T2 sequence (P35222 2-781 limits assumed): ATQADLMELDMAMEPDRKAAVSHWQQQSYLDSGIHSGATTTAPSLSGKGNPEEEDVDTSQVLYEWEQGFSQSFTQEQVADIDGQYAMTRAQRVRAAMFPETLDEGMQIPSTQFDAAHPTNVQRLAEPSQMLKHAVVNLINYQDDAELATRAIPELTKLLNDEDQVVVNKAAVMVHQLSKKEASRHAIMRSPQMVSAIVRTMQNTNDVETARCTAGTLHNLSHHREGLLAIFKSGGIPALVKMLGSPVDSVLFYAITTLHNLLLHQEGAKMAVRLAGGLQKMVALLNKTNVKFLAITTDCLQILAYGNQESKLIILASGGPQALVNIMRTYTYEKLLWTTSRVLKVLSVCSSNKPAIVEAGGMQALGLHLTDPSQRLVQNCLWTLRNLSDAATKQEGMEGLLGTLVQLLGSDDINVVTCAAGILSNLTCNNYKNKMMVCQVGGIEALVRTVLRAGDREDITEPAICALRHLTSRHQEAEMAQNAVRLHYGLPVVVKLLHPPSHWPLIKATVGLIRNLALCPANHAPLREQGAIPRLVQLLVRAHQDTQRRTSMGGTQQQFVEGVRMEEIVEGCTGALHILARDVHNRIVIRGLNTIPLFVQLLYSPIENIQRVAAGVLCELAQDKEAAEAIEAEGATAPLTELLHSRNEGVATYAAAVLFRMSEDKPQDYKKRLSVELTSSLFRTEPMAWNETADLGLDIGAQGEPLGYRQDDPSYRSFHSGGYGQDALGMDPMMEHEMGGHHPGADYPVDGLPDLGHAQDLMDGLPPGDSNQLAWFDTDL
Text: as §2

[5] = system: IκBα and actin; assay: Anti-FITC pulldown from MCF7 lysates (unrelated proteins); assay type: cell-based; settings: MCF7 cells, selectivity
Text: as §2

[6] = system: β-catenin/TCF interaction; settings: Lepourcelet et al. 2004; cited from earlier work
[7] = system: colon cancer cells; settings: Lepourcelet et al. 2004; cited from earlier work
[8] = Sukhdeo et al. 2007; cited from earlier work

| Substance | cellular uptake [1] | temperature-dependent uptake [1] | cellular uptake [2] | β-catenin interaction by co-immunoprecipitation [3] | effect on β-catenin's interaction with E-cadherin [4] | co-immunoprecipitation of unrelated proteins (IκBα, actin) [5] | Wnt-specific transcriptional activity [6] | growth of colon cancer cells [7] | toxicity in treated mice [8] |
| --- | --- | --- | --- | --- | --- | --- | --- | --- | --- |
| FITC-SAH-BCL9B: FITC derivative (via β-Ala at the amino terminus) of SAH-BCL9B | equivalent cellular uptake | equivalent temperature-dependent uptake | equivalent cellular uptake | dose-responsively co-immunoprecipitated with β-catenin | no effect | no co-immunoprecipitation of unrelated proteins |  |  |  |
| SAH-BCL9B(H358D): SEQ ID NO: 6: LSQEQLEDRERSLXTLRXIQRBLF; reverse polarity point mutant of SAH-BCL9B | similar |  |  | impaired β-catenin interaction |  |  |  |  |  |
| FITC-SAH-BCL9B(R359E): FITC derivative of SAH-BCL9B(R359E) | equivalent cellular uptake | equivalent temperature-dependent uptake | equivalent cellular uptake |  |  |  |  |  |  |
| PKF115-584 |  |  |  |  |  |  | blocked Wnt-specific transcriptional activity | reduced the growth of colon cancer cells | severe bone marrow hypoplasia, anemia, and generalized wasting |
